B1: ZNF449 (parent)
chain: CTHCSKSFRQRAGLIMHQVTHFRG
B2: CCDC6 (parent)
chain: ASVTIQARAEQEEEFISNTLFKKI

Variants of: B1
Test: protein stability index of a GFP-peptide fusion (GPS, HEK-293T) (PSI 1-6); higher = more stable
Settings: c terminus: a fixed tail appended
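Note: lentivirally expressed fusions sorted by FACS into six bins by GFP to DsRed ratio, PSI derived from sequencing read proportions per bin multiplied by bin number.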

Protein stability index: each site, then its substitutions
R11: C 3.42, M 3.23, K 1.82, F 2.46, Q 1.8, A 2.28, G 2.28, S 1.48, Y 2.29, T 1.69, D 1.58, E 2.79, P 1.84, H 1.87, V 2.23, W 1.94, L 3.44, N 1.8
S7: R 1.31, W 1.78, Y 2.44, D 2.18, M 1.57, I 1.73, V 2.22, Q 1.76, L 2.69, N 2.58, E 2.29, T 1.08, K 2.62, F 2.49, P 1.59
M16: L 1.98, G 3.45, T 2.78, C 2.64, R 3.9, E 3.85, Y 1.57, K 3.55, P 1.65, Q 3.57, D 3.52, A 3.98, H 2.43, V 2, W 1.52, I 3.24, S 3.15, N 2.86, F 2.18
H17: D 2.46, G 3.28, I 2.52, M 2.44, P 1.03, K 2.24, R 1.82, W 2.12, T 1.47, L 1.69, E 2.36, N 1.43, C 2.29
I15: N 1.73, S 3.21, T 2.3, Q 2.76, R 2.66, F 2.4, P 1.22, D 2.93, H 2.2, G 1.94, A 2.39, K 2.36, E 3.59, Y 2.44, W 2.9, M 2.49, V 3.12
H21: A 2.17, E 1.89, T 1.47, K 2.28, G 1.55, C 2.53, P 1.49, W 2.41, R 1.85, S 1.29, Y 1.4, F 1.8, M 2.56, V 1.91, I 2.39, L 1.97, Q 1.35
Q18: N 1.53, E 2.09, Y 3.18, D 2.79, P 3.9, C 1.9, G 1.32, A 1.51, T 1.43, M 1.69, W 1.29, S 2.48, R 1.73, H 1.72, I 1.96, F 1.67, K 1.69, L 2.11, V 1.52
F8: N 2.04, D 1.54, R 2.1, Y 3.03, T 1.7, A 1.91, K 1.9, S 2.43, L 1.79, Q 2.17, H 1.44, M 1.38, P 1.81, E 2.19, C 2.74, V 1.07, I 2.15
V19: R 3.95, C 3.24, A 2.01, D 1.81, T 1.88, N 2.82, E 3.08, H 1.89, W 2.71, F 2.4, K 3.79, L 2.92, S 1.79, Q 2, P 1.76, Y 2.55, I 2.91, M 2.12, G 2.74
R9: Q 2.63, I 1.94, G 2.18, A 2.58, P 2.29, T 2.77, S 3.04, V 3.17, E 2.15, C 2.33, M 2.9, D 3.85, K 2.81, Y 1.79, L 1.96, H 1.87, W 2.07, N 2.77
G24: N 2.91, V 3.46, E 2.88, P 3.29, F 2.68, R 2.29, S 2.33, K 3.01, A 2.82, I 2.44, D 3.59, L 3.55, T 2.69, W 3.25, H 2.17, C 2.53, M 2.81, Y 2.41, Q 3.19
L14: M 1.97, G 1.41, F 2.54, Q 2.02, I 1.3, D 2.14, R 2.01, Y 1.5, P 1.54, W 2.05, S 1.9, K 2.05, H 2, E 1.95, N 1.49, T 2.09, V 2.37, C 1.73
F22: K 2.06, S 2.2, I 1.92, Y 2.45, H 3.29, M 2.18, G 2.61, D 2.37, L 1.93, T 1.98, P 1.58, R 3.58, A 1.72, E 1.98, W 1.08, N 2.39, Q 2.5, V 2.14, C 3.06
T20: A 2.04, M 1.56, I 2.57, G 2.06, C 1.52, K 2.33, R 2.14, E 1.99, D 2.18, N 2.44, H 2.33, W 2.09, L 1.43, S 1.45, Q 1.83, F 2.09, Y 2.05, V 1.73
A12: L 2.11, D 3.09, M 2.25, C 2.29, V 1.48, H 1.88, T 2.2, N 2.06, F 2.25, P 2.69, E 3.82, Q 3.53, I 2.36, R 3.35, K 3.49, W 2.53, G 2.44, Y 1.9
G13: Y 1.31, S 1.52, P 1.23, C 1.07, V 2.58, T 2.36, I 1.96, A 2.47, R 2.65, F 1.95, H 1.4, M 2.12, L 1.68, W 1.87, Q 2.87, K 2.06, N 2.69, E 3.16
Q10: A 2.51, V 2.19, L 1.59, M 1.86, K 2.58, W 2.77, C 2.43, H 2.13, N 2.15, P 1.76, S 1.99, I 1.67, T 2.75, F 1.9, R 1.6, Y 1.95, E 2.61, D 3.41
R23: V 3.18, N 2.15, F 3.33, I 3.44, M 2.44, S 2.07, Q 2.6, E 2.93, Y 2.36, W 3.55, D 2.49, K 2.7, L 3.36, G 2.37, H 1.62, A 2.97, C 2.56, P 2.69, T 2.03

Variants of: B2
Test: as above
Settings: c terminus: a fixed tail appended

Protein stability index, by site and new letter:
A1: N 3.78, H 3.85, F 2.08, P 3.59, G 3.98, L 2.48, E 4.39, S 3.75, I 1.84, D 4.27, M 3.1, K 3.68, Q 4.09, C 3.07, R 3.51

Reference: the supplement of paper PMC10567573
